Assay results: article PMC6075780, “Interaction of lipoprotein QseG with sensor kinase QseE in the periplasm controls the phosphorylation state of the two-component system QseE/QseF in Escherichia coli” (PLoS Genetics, 2018)

B1: T25-QseE [E. coli K-12] / T18-TM_(oppB)-QseG [E. coli K-12] (parent complex)
chain 1: MKRWPVFPRSLRQLVMLAFLLILLPLLVLAWQAWQSLNALSDQAALVNRTTLIDARRSEAMTNAALEMERSYRQYCVLDDPTLAKVYQSQRKRYSEMLDAHAGVLPDDKLYQALRQDLHNLAQLQCNNSGPDAAAAARLEAFASANTEMVQATRTVVFSRGQQLQREIAERGQYFGWQSLVLFLVSLVMVLLFTRMIIGPVKNIERMINRLGEGRSLGNSVSFSGPSELRSVGQRILWLSERLSWLESQRHQFLRHLSHELKTPLASMREGTELLADQVVGPLTPEQKEVVSILDSSSRNLQKLIEQLLDYNRKQADSAVELENVELAPLVETVVSAHSLPARAKMMHTDVDLKATACLAEPMLLMSVLDNLYSNAVHYGAESGNICLRSSLHGARVYIDVINTGTPIPQEERAMIFEPFFQGSHQRKGAVKGSGLGLSIARDCIRRMQGELYLVDESGQDVCFRIELPSSKNTK
chain 2: CVQNHNKPAIDTPAEEKIPVYQLADYLSTECSDIWALQGKSTETNPLYWLRAMDCADRLMPAQSRQQARQYDDGSWQNTFKQGILLADAKITPYERRQLVARIEALSTEIPAQVRPLYQLWRDGQALQLQLAEERQRYSKLQQSSDSELDTLRQQHHVLQQQLELTTRKLENLTDIERQLSTRKPAGNFSPDTPHESEKPAPSTHEVTPDEP

Variants of: B1
Test: BACTH assay (bacterial two-hybrid, β-galactosidase read-out); reporter strain BTH101; plasmids pYG242/pYG199_TM1; parent: 1.6e+03; read off a plot

Row | Variant | response [Miller units]
1 | chain 1 F19L, chain 1 L21H, chain 1 I22R, chain 1 L23P, chain 1 L24P | ~70

Variants of: B1
Test: BACTH assay (bacterial two-hybrid, β-galactosidase read-out); reporter strain BTH101; plasmids pYG242/pYG199_1.6; parent: 1.6e+03; read off a plot

Row | Variant | response [Miller units]
2 | chain 1 S58N | ~250
